These results are taken from US20240010735A1 (EISAI R AND D MANAGEMENT, published 2024).

What is called IC50 is the concentration at which inhibition is half-maximal. High values mean lower potency, low ones higher potency.

Assay [1] deals with T1, mouse EphA4 extracellular region-SEAP-His protein (mouse).
T1 construct: also called mouse EphA4 extracellular region-SEAP-His 10
Description: competition ELISA; captured mouse EphA4 extracellular region-SEAP-His, competitor biotinylated mouse EphrinB2-Fc chimera (2.5 nM). As to the method:
(§1) Anti-alkaline phosphatase antibodies (Thermo […]) were coated onto the wells of a 96-well plate (Nunc). After incubating at 4° C. overnight, the wells were blocked at room temperature for 1 hour by 1% Block Ace (DS Pharma Biomedical). After washing 3 times with 0.02% Tween 20/PBS (Thermo […]), mouse EphA4 extracellular region-SEAP-His protein was added to the wells (final concentration 10 nM), and incubated at room temperature for 1 hour. After washing 3 times, the ligand and antibody A (0, 0.003, 0.01, 0.03, 0.1, 0.3, 1, 3, 10, 30, 100, 300, 1000, 3000 nM) were supplemented to the wells. Note that biotinylated mouse EphrinA1-Fc chimera (R&D Systems, final concentration 6 nM) and biotinylated mouse EphrinB2-Fc chimera (R&D Systems, final concentration 2.5 nM) were employed as ligands. After incubating at room temperature for 1 hour and washing 3 times, horseradish peroxidase-labeled streptavidin (GE Healthcare) was added, and incubated at room temperature for 1 hour. After washing 3 times, TMBZ (3,3′, 5,5′-tetramethylbenzidine, Sigma) solution was added to the wells, and incubated at room temperature for 2 minutes. An equal amount of quenching solution (1 N H₂SO₄, Wako Pure Chemicals) was added to the wells, and absorbance at 450 nm was read by a microplate reader (PerkinElmer). […]
A general note: ELISA stands for enzyme-linked immunosorbent assay.

In assay [2] the target is T2, human EphA4 extracellular region-SEAP-His protein (human, UniProt P54764 20-547).
T2 construct: also called human EphA4 extracellular region-SEAP-His 10; not shown: secretory alkaline phosphatase (SEAP); histidine tag
In words: competition ELISA; captured human EphA4 extracellular region-SEAP-His, competitor biotinylated human EphrinA5-Fc chimera (0.7 nM). As to the method:
Anti-alkaline phosphatase antibodies (Thermo […]) were coated onto the wells of a 96-well plate (Nuns). After incubating at 4° C. overnight, the wells were blocked at room temperature for 1 hour by 1% Block Ace (DS Pharma Biomedical). After washing 3 times with 0.05% Tween 20/PBS (Thermo […]), human EphA4 extracellular region-SEAP-His protein was added to the wells (final concentration 10 nM), and incubated at room temperature for 1 hour. After washing 3 times, the ligand and serially diluted antibody A (0, 0.003, 0.01, 0.03, 0.1, 0.3, 1, 3, 10, 30, 100, 300, 1000, 3000 nM) were supplemented to the wells. Note that biotinylated human EphrinA5-Fc chimera (R&D Systems, final concentration 0.7 nM) and biotinylated human EphrinB3-Fc chimera (R&D Systems, final concentration 2.3 nM) were employed as ligands. After incubating at room temperature for 1 hour and washing 3 times, horseradish peroxidase-labeled streptavidin (GE Healthcare) was added, and incubated at room, temperature for 1 hour. After washing 3 times, TMBZ (3,3′,5,5 ′-tetramethylbenzidine, Sigma) solution was added to the wells, and incubated at room temperature for 2-5minutes. An equal amount of quenching solution (1 N H₂SO₄, Wako Pure Chemicals) was added to the wells, and absorbance at 450 nm was read by a microplate reader (Molecular Devices or PerkinElmer). […]

The target of assay [3] is T1, mouse EphA4 extracellular …. In words: competition ELISA; captured mouse EphA4 extracellular region-SEAP-His, competitor biotinylated mouse EphrinA1-Fc chimera (6 nM). The procedure: as §1

T1 sequence (chain, as listed by the source limits assumed): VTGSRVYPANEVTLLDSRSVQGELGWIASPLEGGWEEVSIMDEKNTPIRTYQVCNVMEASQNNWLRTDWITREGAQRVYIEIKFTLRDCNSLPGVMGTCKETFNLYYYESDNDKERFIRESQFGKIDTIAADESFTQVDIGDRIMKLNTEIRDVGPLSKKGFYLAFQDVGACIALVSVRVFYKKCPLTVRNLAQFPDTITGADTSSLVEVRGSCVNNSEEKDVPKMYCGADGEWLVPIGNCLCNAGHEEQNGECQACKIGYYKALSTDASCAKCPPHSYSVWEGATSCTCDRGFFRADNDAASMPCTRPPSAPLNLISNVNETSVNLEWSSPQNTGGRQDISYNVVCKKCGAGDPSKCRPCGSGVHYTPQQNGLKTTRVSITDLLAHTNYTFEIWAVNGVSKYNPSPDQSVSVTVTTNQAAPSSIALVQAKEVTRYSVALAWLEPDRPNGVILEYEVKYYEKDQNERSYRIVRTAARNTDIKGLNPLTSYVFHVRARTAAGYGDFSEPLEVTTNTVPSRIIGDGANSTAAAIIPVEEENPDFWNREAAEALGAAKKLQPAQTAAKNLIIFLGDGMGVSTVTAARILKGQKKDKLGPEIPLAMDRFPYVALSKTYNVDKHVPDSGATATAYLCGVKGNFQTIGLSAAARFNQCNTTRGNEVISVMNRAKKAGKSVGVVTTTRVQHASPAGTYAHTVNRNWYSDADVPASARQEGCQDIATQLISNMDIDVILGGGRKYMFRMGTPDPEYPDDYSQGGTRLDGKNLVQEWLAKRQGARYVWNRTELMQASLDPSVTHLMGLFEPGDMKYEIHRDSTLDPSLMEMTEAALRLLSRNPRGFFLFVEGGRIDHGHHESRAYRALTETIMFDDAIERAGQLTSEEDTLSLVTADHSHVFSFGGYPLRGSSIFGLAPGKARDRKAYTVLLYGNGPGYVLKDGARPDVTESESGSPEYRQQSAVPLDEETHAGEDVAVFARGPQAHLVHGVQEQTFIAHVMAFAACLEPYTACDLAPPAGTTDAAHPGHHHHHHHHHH
T2 sequence (P54764 20-547): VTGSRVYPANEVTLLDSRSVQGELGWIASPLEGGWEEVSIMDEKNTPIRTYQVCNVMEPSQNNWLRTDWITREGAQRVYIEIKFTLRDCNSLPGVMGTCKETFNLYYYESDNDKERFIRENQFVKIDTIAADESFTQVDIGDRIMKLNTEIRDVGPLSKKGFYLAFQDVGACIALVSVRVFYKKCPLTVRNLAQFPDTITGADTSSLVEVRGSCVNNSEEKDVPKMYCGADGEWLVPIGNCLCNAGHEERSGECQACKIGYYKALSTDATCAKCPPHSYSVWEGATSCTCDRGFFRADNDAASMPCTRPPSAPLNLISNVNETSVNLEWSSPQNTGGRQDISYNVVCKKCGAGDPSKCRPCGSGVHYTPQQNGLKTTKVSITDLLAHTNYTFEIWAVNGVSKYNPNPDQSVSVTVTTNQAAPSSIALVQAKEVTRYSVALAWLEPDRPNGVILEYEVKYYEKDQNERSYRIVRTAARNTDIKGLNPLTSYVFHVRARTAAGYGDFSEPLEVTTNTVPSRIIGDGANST

B1: mouse anti-EphA4 monoclonal antibody (antibody A) (antibody, mouse IgG1, kappa, V domains shown)
VH: QVQLKQSGPSLVQPSQSLSITCTVSGFSLTRYGVHWVRQSPGKGLEWLGVIWRGGSTDYNAAFMSRLSITKDNSKSQVFFKMNSLQADDTAIYYCAKESLFGVYYDYGYYSMDYWGQGTSVTVSS
VL: DIQMTQSPSSLSASLGERVSLTCRASQEISGYLSWLQQKPDGTIKRLIYAASTLDSGVPKRFSGSRSGSDYSLTISSLESEDFADYYCLQYASYPLTFGAGTKLELKR
notes: purified from hybridoma supernatant
For the molecule B1, the IC50 in assay [1] is about 3.1 nM; in assay [2] it was about 2.8 nM; in assay [3], about 5.9 nM.

B2: humanized anti-EphA4 monoclonal antibody (antibody B) (antibody, human IgG2, V domains shown)
VH: QVQLVESGGGVVQPGRSLRLSCAVSGFSLTRFGVHWVRQAPGKGLEWVAVIWRGGSTDYNAAFMSRLTISKDNSKNTVYLQMNSLRAEDTAVYYCAKESLFGVYYDYGYYSMDYWGQGTTVTVSS
VL: DIQMTQSPSSLSASVGDRVTITCRASQEISGYLSWLQQKPGKAPKRLIYAASTLDSGVPSRFSGSRSGTEYTLTISSLQPEDFATYYCLQYASYPLTFGGGTKVEIKR
notes: expressed in Expi293F cells; also called humanized antibody of antibody A; HK2-42 / L1-8
As to B2, the half-inhibitory concentration (IC50) in assay [1] was about 4.2 nM; in assay [2] it was about 4.9 nM; in assay [3] it was about 8.7 nM.
